Measurements: patent US20170101469A1 (FOURTH MILITARY MEDICAL UNIVERSITY, published 2017)

T1: human CD147 antigen (human, UniProt P35613-2 22-205, limits assumed)
T1 sequence (looked up): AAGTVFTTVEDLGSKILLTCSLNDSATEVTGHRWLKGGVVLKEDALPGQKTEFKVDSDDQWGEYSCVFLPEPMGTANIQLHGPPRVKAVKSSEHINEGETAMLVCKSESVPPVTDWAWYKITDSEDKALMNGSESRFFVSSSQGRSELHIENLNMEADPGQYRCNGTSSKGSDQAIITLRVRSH

B1: Metuzumab (antibody, human IgG1, kappa, V domains shown)
VH: EVKLEESGGGLVQPGGSMKLSCVASGFTFSDAWMDWVRQSPEKGLEWVAEIRSKANNHAPYYTESVKGRFTISRDDSKSIIYLQMNNLRAEDTGIYYCTRDSTATHWGQGTLVTVSA
VL: SIVMTQTPTFLVVSAGDRVTITCKASQSVINDVAWYQQKPGQSPKLLIFYASNRNTGVPDRFTGSGYGTDFTFTISTVQAEDLAVYFCQQDYSPPFTFGSGTKLEIKR
modifications: N-linked Mannose-5 oligosaccharide in the Fc region, no fucose or xylose residue detected (site not numbered in the filing)
notes: Human-mouse chimeric IgG1 made in acetyl-glucosamine transferase deficient CHO K1 MAGE1.5 cells; only the glycoform differs; Residues 1-16 are left out on that basis; also called HcHAb18; glycosylation modified chimeric antibody Metuzumab
B2: HAb18 (antibody, V domains shown)
VH: EVKLEESGGGLVQPGGSMKLSCVASGFTFSDAWMDWVRQSPEKGLEWVAEIRSKANNHAPYYTESVKGRFTISRDDSKSIIYLQMNNLRAEDTGIYYCTRDSTATHWGQGT
VL: B1 VL
notes: Murine monoclonal antibody from hybridoma CGMCC NO; 0426; The variable domains are tied to HAb18 through cHAb18, whose variable domains are 'derived from HAb18'; also called original mouse antibody HAb18; anti-CD147 murine monoclonal antibody HAb18
B3: cHAb18 (antibody, human IgG1, kappa, V domains shown)
VH: B1 VH
VL: B1 VL
modifications: N-linked fucosylated oligosaccharides, G0F, G1F and G1F' glycoforms (site not numbered in the filing)
notes: Human-mouse chimeric IgG1 made in CHO K1 cells; also called chimeric antibody cHAb18; cHAb18 mAb

Experiments:
human CD147 antigen [1] = target: T1, human CD147 antigen; experiment: SPR (ProteOn XPR36), antibody immobilised on a GLC chip, human CD147 antigen injected at 0.375-6 nM, 25 C
Protocol: (§1) The affinity (KD) for the binding of human CD147 antigen to selected antibodies was measured by Surface plasmon resonance analysis on a multi-SPR array system (ProteOn XPR36™, Bio-Rad). Data analysis was performed using ProteOn Manager Software (Bio-Rad). Briefly, the running buffer PBST (0.005% Tween-20 in PBS) was used continuously throughout the entire experiment at 25° C. A ProteOn GLC sensor chips (Bio-Rad) was activated for 6 min using a mixture of 0.2M EDC and 5 mM sulfo-NHS at a flow rate of 20 μl/min, followed by diluting 260 μl of 10 μg/mL each antibody in 10 mM acetate buffer at pH 4.5. The surface of the sensor chip was then deactivated with 150 μl of IM Ethanolamine Hydrochloride (pH 8.5). The sensor surface was regenerated through a wash (about 3 min) with HBS-EP buffer until the baseline was restored. A reference cell without antibodies was prepared by a similar procedure. 5 different concentrations of human CD147 antigen (0.375, 0.75, 1.5, 3, and 6 nM) were injected in channels 1 to 5, respectively, at flow rate of 50 μl/min, 3 min. A reference channel was prepared in the same manner without injection of CD147 antigen. The SPR binding responses were collected and analyzed using the ProteOn data manager program.
Two sets of experiments were performed, in the first set of experiments, the human CD147 binding affinity of HAb18 and Metuzumab were compared (data shown in FIG. 3A), in the second set of experiments the human CD147 binding affinity of cHAb18 and Metuzumab were compared (data shown in FIG. 3B).

human CD147 antigen [2] = target: T1, human CD147 antigen; experiment: SPR, ProteOn XPR36, antibody amine-coupled to GLC chip, human CD147 0.375-6 nM as analyte, 25 C; first set of experiments (FIG. 3A)
Protocol: as §1, with “program. […]” for “program.”

human CD147 antigen [3] = target: T1, human CD147 antigen; experiment: SPR, ProteOn XPR36, antibody amine-coupled to GLC chip, human CD147 0.375-6 nM as analyte, 25 C; second set of experiments (FIG. 3B)
Protocol: as §1, with “program. […]” for “program.”

Row | Binder | Kd (human CD147 antigen [1]) [nM] | koff (human CD147 antigen [1]) [s⁻¹] | kon (human CD147 antigen [1]) [M⁻¹ s⁻¹] | Kd (human CD147 antigen [2]) [nM] | Kd (human CD147 antigen [3]) [nM]
1 | B1 | 0.362 | 0.000417 | 1.15e+06 | 0.321 | 0.429
2 | B2 | 0.321 | 0.000351 | 1.09e+06 | 0.362 | –
3 | B3 | – | – | – | – | 0.475
